T1: BMPRII receptor-Fc fusion (UniProt Q13873 27-151, limits assumed)
T1 construct: BMP receptor-Fc fusion used at 5 ug/mL
T1 sequence (looked up): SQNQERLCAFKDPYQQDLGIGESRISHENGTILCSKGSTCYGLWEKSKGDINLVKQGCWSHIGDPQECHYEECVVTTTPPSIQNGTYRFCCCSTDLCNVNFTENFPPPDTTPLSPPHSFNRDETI

T2: BMPRIb receptor-Fc fusion (UniProt O00238 14-126)
T2 construct: BMP receptor-Fc fusion used at 5 ug/mL; also called ALK-6
T2 sequence (looked up): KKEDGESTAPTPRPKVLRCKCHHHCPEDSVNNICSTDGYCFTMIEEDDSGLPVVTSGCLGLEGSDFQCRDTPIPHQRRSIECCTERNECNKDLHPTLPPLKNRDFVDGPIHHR


Tests used:
Assay in all cases: ELISA-like plate assay, captured BMP-7 from conditioned media, receptor-Fc detection
[1] = biological target: T3, BMPRIa receptor-Fc fusion (UniProt P36894 24-152, limits assumed)
T3 construct: also called ALK-3

[2] = biological target: T1, BMPRII receptor-Fc fusion
[3] = biological target: T2, BMPRIb receptor-Fc fusion
[4] = biological target: T4, ActRIIa receptor-Fc fusion (UniProt P27037 20-134, limits assumed)
T4 construct: BMP receptor-Fc fusion used at 5 ug/mL
T4 sequence (P27037 20-134 limits assumed): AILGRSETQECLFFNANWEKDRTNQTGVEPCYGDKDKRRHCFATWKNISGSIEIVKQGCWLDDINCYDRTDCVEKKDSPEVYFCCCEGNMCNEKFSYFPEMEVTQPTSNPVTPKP

T3 sequence (P36894 24-152 limits assumed): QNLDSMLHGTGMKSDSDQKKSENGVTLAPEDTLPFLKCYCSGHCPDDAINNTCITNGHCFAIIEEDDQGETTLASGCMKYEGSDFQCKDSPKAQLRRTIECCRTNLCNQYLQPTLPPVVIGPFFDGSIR

BMPRIa binding (relative to wild type = 1.0) [1]	BMPRII binding (relative to wild type = 1.0) [2]	BMPRIb binding (relative to wild type = 1.0) [3]	ActRIIa binding (relative to wild type = 1.0) [4]	Binder
2.53 relative to wild type	2.3 relative to wild type	3.65 relative to wild type	1.5 relative to wild type	BMP-7 variant L21G (ligand, In conditioned media; numbering on mature BMP-7) STGGKQRSQNRSKTPKNQEAGRMASVAENSSSDQRQACKKHELYVSFRDLGWQDWIIAPEGYAAYYCEGECAFPLNSYMNATNHAIVQTLVHFINPETVPKPCCAPTQLNAISVLYFDDSSNVILKKYRNMVVRACGCH
3.7 relative to wild type	1.37 relative to wild type	3.95 relative to wild type	0.99 relative to wild type	BMP-7 variant Q53G (ligand, In conditioned media; numbering on mature BMP-7) STGGKQRSQNRSKTPKNQEALRMASVAENSSSDQRQACKKHELYVSFRDLGWGDWIIAPEGYAAYYCEGECAFPLNSYMNATNHAIVQTLVHFINPETVPKPCCAPTQLNAISVLYFDDSSNVILKKYRNMVVRACGCH
0.55 relative to wild type	0.28 relative to wild type	0.65 relative to wild type	0.87 relative to wild type	BMP-7 variant L90G (ligand, In conditioned media; numbering on mature BMP-7) STGGKQRSQNRSKTPKNQEALRMASVAENSSSDQRQACKKHELYVSFRDLGWQDWIIAPEGYAAYYCEGECAFPLNSYMNATNHAIVQTGVHFINPETVPKPCCAPTQLNAISVLYFDDSSNVILKKYRNMVVRACGCH
2.3 relative to wild type	0.72 relative to wild type	2.78 relative to wild type	0.98 relative to wild type	BMP-7 variant Q53E (ligand, In conditioned media; numbering on mature BMP-7) STGGKQRSQNRSKTPKNQEALRMASVAENSSSDQRQACKKHELYVSFRDLGWEDWIIAPEGYAAYYCEGECAFPLNSYMNATNHAIVQTLVHFINPETVPKPCCAPTQLNAISVLYFDDSSNVILKKYRNMVVRACGCH
0.79 relative to wild type	0.95 relative to wild type	0.81 relative to wild type	0.96 relative to wild type	BMP-7 variant N76A (ligand, In conditioned media; numbering on mature BMP-7) STGGKQRSQNRSKTPKNQEALRMASVAENSSSDQRQACKKHELYVSFRDLGWQDWIIAPEGYAAYYCEGECAFPLASYMNATNHAIVQTLVHFINPETVPKPCCAPTQLNAISVLYFDDSSNVILKKYRNMVVRACGCH
0.46 relative to wild type	0.17 relative to wild type	0.52 relative to wild type	0.75 relative to wild type	BMP-7 variant L90P (ligand, In conditioned media; numbering on mature BMP-7) STGGKQRSQNRSKTPKNQEALRMASVAENSSSDQRQACKKHELYVSFRDLGWQDWIIAPEGYAAYYCEGECAFPLNSYMNATNHAIVQTPVHFINPETVPKPCCAPTQLNAISVLYFDDSSNVILKKYRNMVVRACGCH
1.26 relative to wild type	0.96 relative to wild type	1.41 relative to wild type	0.81 relative to wild type	BMP-7 variant Q53R (ligand, In conditioned media; numbering on mature BMP-7) STGGKQRSQNRSKTPKNQEALRMASVAENSSSDQRQACKKHELYVSFRDLGWRDWIIAPEGYAAYYCEGECAFPLNSYMNATNHAIVQTLVHFINPETVPKPCCAPTQLNAISVLYFDDSSNVILKKYRNMVVRACGCH
0.84 relative to wild type	0.87 relative to wild type	0.8 relative to wild type	1.13 relative to wild type	BMP-7 variant N76D (ligand, In conditioned media; numbering on mature BMP-7) STGGKQRSQNRSKTPKNQEALRMASVAENSSSDQRQACKKHELYVSFRDLGWQDWIIAPEGYAAYYCEGECAFPLDSYMNATNHAIVQTLVHFINPETVPKPCCAPTQLNAISVLYFDDSSNVILKKYRNMVVRACGCH
0.94 relative to wild type	0.97 relative to wild type	0.98 relative to wild type	1.11 relative to wild type	BMP-7 variant N76T (ligand, In conditioned media; numbering on mature BMP-7) STGGKQRSQNRSKTPKNQEALRMASVAENSSSDQRQACKKHELYVSFRDLGWQDWIIAPEGYAAYYCEGECAFPLTSYMNATNHAIVQTLVHFINPETVPKPCCAPTQLNAISVLYFDDSSNVILKKYRNMVVRACGCH
0.48 relative to wild type	0.29 relative to wild type	0.64 relative to wild type	0.66 relative to wild type	BMP-7 variant L90T (ligand, In conditioned media; numbering on mature BMP-7) STGGKQRSQNRSKTPKNQEALRMASVAENSSSDQRQACKKHELYVSFRDLGWQDWIIAPEGYAAYYCEGECAFPLNSYMNATNHAIVQTTVHFINPETVPKPCCAPTQLNAISVLYFDDSSNVILKKYRNMVVRACGCH
0.36 relative to wild type	0.2 relative to wild type	0.55 relative to wild type	0.47 relative to wild type	BMP-7 variant L90H (ligand, In conditioned media; numbering on mature BMP-7) STGGKQRSQNRSKTPKNQEALRMASVAENSSSDQRQACKKHELYVSFRDLGWQDWIIAPEGYAAYYCEGECAFPLNSYMNATNHAIVQTHVHFINPETVPKPCCAPTQLNAISVLYFDDSSNVILKKYRNMVVRACGCH
0.7 relative to wild type	0.14 relative to wild type	2.03 relative to wild type	0.73 relative to wild type	BMP-7 variant Q53K (ligand, In conditioned media; numbering on mature BMP-7) STGGKQRSQNRSKTPKNQEALRMASVAENSSSDQRQACKKHELYVSFRDLGWKDWIIAPEGYAAYYCEGECAFPLNSYMNATNHAIVQTLVHFINPETVPKPCCAPTQLNAISVLYFDDSSNVILKKYRNMVVRACGCH
0.98 relative to wild type	0.9 relative to wild type	1.36 relative to wild type	0.94 relative to wild type	BMP-7 variant M23N (ligand, In conditioned media; numbering on mature BMP-7) STGGKQRSQNRSKTPKNQEALRNASVAENSSSDQRQACKKHELYVSFRDLGWQDWIIAPEGYAAYYCEGECAFPLNSYMNATNHAIVQTLVHFINPETVPKPCCAPTQLNAISVLYFDDSSNVILKKYRNMVVRACGCH
0.2 relative to wild type	0.18 relative to wild type	0.27 relative to wild type	0.24 relative to wild type	BMP-7 variant L90E (ligand, In conditioned media; numbering on mature BMP-7) STGGKQRSQNRSKTPKNQEALRMASVAENSSSDQRQACKKHELYVSFRDLGWQDWIIAPEGYAAYYCEGECAFPLNSYMNATNHAIVQTEVHFINPETVPKPCCAPTQLNAISVLYFDDSSNVILKKYRNMVVRACGCH
0.83 relative to wild type	0.66 relative to wild type	1.01 relative to wild type	0.84 relative to wild type	BMP-7 variant L21R (ligand, In conditioned media; numbering on mature BMP-7) STGGKQRSQNRSKTPKNQEARRMASVAENSSSDQRQACKKHELYVSFRDLGWQDWIIAPEGYAAYYCEGECAFPLNSYMNATNHAIVQTLVHFINPETVPKPCCAPTQLNAISVLYFDDSSNVILKKYRNMVVRACGCH
1.57 relative to wild type	1.73 relative to wild type	2.81 relative to wild type	1.03 relative to wild type	BMP-7 variant L21N (ligand, In conditioned media; numbering on mature BMP-7) STGGKQRSQNRSKTPKNQEANRMASVAENSSSDQRQACKKHELYVSFRDLGWQDWIIAPEGYAAYYCEGECAFPLNSYMNATNHAIVQTLVHFINPETVPKPCCAPTQLNAISVLYFDDSSNVILKKYRNMVVRACGCH
2.2 relative to wild type	1.01 relative to wild type	3.74 relative to wild type	0.89 relative to wild type	BMP-7 variant Q53D (ligand, In conditioned media; numbering on mature BMP-7) STGGKQRSQNRSKTPKNQEALRMASVAENSSSDQRQACKKHELYVSFRDLGWDDWIIAPEGYAAYYCEGECAFPLNSYMNATNHAIVQTLVHFINPETVPKPCCAPTQLNAISVLYFDDSSNVILKKYRNMVVRACGCH
0.76 relative to wild type	0.98 relative to wild type	0.85 relative to wild type	0.99 relative to wild type	BMP-7 variant N76S (ligand, In conditioned media; numbering on mature BMP-7) STGGKQRSQNRSKTPKNQEALRMASVAENSSSDQRQACKKHELYVSFRDLGWQDWIIAPEGYAAYYCEGECAFPLSSYMNATNHAIVQTLVHFINPETVPKPCCAPTQLNAISVLYFDDSSNVILKKYRNMVVRACGCH
0.88 relative to wild type	2.41 relative to wild type	1.09 relative to wild type	2.2 relative to wild type	BMP-7 variant M23S (ligand, In conditioned media; numbering on mature BMP-7) STGGKQRSQNRSKTPKNQEALRSASVAENSSSDQRQACKKHELYVSFRDLGWQDWIIAPEGYAAYYCEGECAFPLNSYMNATNHAIVQTLVHFINPETVPKPCCAPTQLNAISVLYFDDSSNVILKKYRNMVVRACGCH
0.46 relative to wild type	0.6 relative to wild type	0.46 relative to wild type	0.92 relative to wild type	BMP-7 variant N76Y (ligand, In conditioned media; numbering on mature BMP-7) STGGKQRSQNRSKTPKNQEALRMASVAENSSSDQRQACKKHELYVSFRDLGWQDWIIAPEGYAAYYCEGECAFPLYSYMNATNHAIVQTLVHFINPETVPKPCCAPTQLNAISVLYFDDSSNVILKKYRNMVVRACGCH

Reference: patent US20060058231A1 (Xencor, published 2006)
